In article doi:10.1101/2025.02.14.637896 (bioRxiv, 2025):

Target: the molecule itself
Experiment: SEC

B1: GIRK2 R92F channel (G protein-gated inwardly rectifying potassium channel 2, R92F substitution) (natural protein, mouse, UniProt P48542 1-425, looked up)
chain: MTMAKLTESMTNVLEGDSMDQDVESPVAIHQPKLPKQARDDLPRHISRDRTKRKIQRYVRKDGKCNVHHGNVRETYRYLTDIFTTLVDLKWFFNLLIFVMVYTVTWLFFGMIWWLIAYIRGDMDHIEDPSWTPCVTNLNGFVSAFLFSIETETTIGYGYRVITDKCPEGIILLLIQSVLGSIVNAFMVGCMFVKISQPKKRAETLVFSTHAVISMRDGKLCLMFRVGDLRNSHIVEASIRAKLIKSKQTSEGEFIPLNQSDINVGYYTGDDRLFLVSPLIISHEINQQSPFWEISKAQLPKEELEIVVILEGIVEATGMTCQARSSYITSEILWGYRFTPVLTMEDGFYEVDYNSFHETYETSTPSLSAKELAELANRAEVPLSWSVSSKLNQHAELETEEEEKNPEELTERNGDVANLENESKV
In the case of B1, the “stoichiometry N” value is reported as 4.
